Substrate in data set [1]: N=C(N)NCCC[C@H](N)C(=O)O
As to the kind of experiment: L-amino acid oxidase (LAAO) enzyme-coupled assay of purified escapin. The class given is biochemical, Aplysia californica. The note with it: other: horseradish peroxidase/o-dianisidine coupled assay, 0.1 M Tris-HCl pH 7.6, room temperature, O.D. 436 nm, Lineweaver-Burk plot. The text has this:
(§1) Animals. Sea hares, Aplysia californica, were collected in California or provided by the NIH National Resource for Aplysia Facility (http://www.rsmas.miami.edu/groups/sea-hares/). They were maintained in aquaria containing recirculating, filtered, and aerated artificial sea water (Instant Ocean™: Aquarium Systems), and fed red alga (Gracilaria ferox). Ink gland processing. The ink glands were surgically removed from sea hares, gently squeezed in a Petri dish with the blunt end of a scalpel handle to release most of the ink secretion from the individual vesicles contained in the gland. The secretion was then pipetted to a microfuge tube and frozen at −80° C. until needed. Opaline gland processing. The opaline glands were surgically removed from sea hares, gently blotted dry on a Kimwipe® to remove seawater (since water causes opaline secretion to polymerize) and transferred to an ultracentrifuge tube. This was centrifuged at 30,000 g for 30 min at 4° C. (Beckman Optima TLX Ultracentrifuge). The pure opaline was then pipetted away from the gland tissue, transferred to a microfuge tube, and frozen at −80° C. until needed. Purification of proteins from purple ink. Proteins were isolated and purified using an ÄKTA 100 Automated FPLC (Amersham Pharmacia Biotech). A preparative grade Hi-Load Superdex 200 16/60 column (Pharmacia) or an in-house-packed Sephacryl 300 HR 26/60 column was used for initial size separation with fractions collected in an automated fraction collector. Fractions identified to have activity by bacterial assay were concentrated using a Biomax 5K NMWL membrane Ultrafree Centrifugal Filter Device (Millipore). Active fractions were further purified on a cation exchange Mono S column, and fractions were collected, assayed, concentrated, and frozen at −80° C. One purified protein of interest was named “escapin” and was bright yellow. Escapin's concentration was determined by Bradford assay using bovine serum albumen (BSA) as a standard. The molecular mass of purified escapin was determined by gel filtration using a Superose-6 10/30 column (Amersham Pharmacia Biotech) eluted with 50 mM potassium phosphate buffer (pH 7.2) containing 150 mM KCl at a flow rate of 0.5 ml/min. The molecular weight markers were BSA (67 kDa), ovalbumen (43 kDa), and chymotrypsinogen A (25 kDa). Protein sequencing. Aplysia californica ink was analyzed for protein content using sodium dodecyl sulfate polyacrylamide gel electrophoresis (SDS-PAGE) on 12% gels. […] This band was blotted from the polyacrylamide gel to a PVDF membrane using CAPS transfer buffer and determined by protein microsequencing and proteomic mass spectrometry (University of Massachusetts Medical School Proteomic Mass Spectrometry Lab: http://www.umassmed.edu/proteomic/leszyk). […]

Substrate in data set [2]: NCCCC[C@H](N)C(=O)O
The description is as above. The class given is biochemical, Aplysia californica. The note with it: other: horseradish peroxidase/o-dianisidine coupled assay, 0.1 M Tris-HCl pH 7.6, room temperature, O.D. 436 nm, Lineweaver-Burk plot.
Text: as §1

B1: Aplysia californica escapin (L-amino acid oxidase), wild type purified from ink, SEQ ID NO:1 (Aplysia californica) (protein)
chain: DGVCRNRRQCNKEVCGSSYDVAIVGAGPGGANSAYMLRESGLDIAVFEYSDRVGGRLFTYQLPNTPDVNLEIGGMRFIEGAMHRLWKVISELGLTPKVFKEGFGKEGRQRFYLRGQSLTKKQVKSGDVPYDLSPEEKANQGRLVEYYLEKLTGLQLNGGPLKREVALKLTVPDGRFLYDLTFDEALDLVASPEGKEFARDTHVFTSEVTLDASAISIFDDHLGEDYYGSEIYTLEEGMSSVPQGLLQTFLDAAKSNEFFPNNHLKALRRRTNGQYVLYFEPTTSKDGQTTINYLEPLKVVCAQRVILAMPVYALRQLDWSQLRNDRATQAYRAVRPMPASKVFMTFDQPWWLQNERKSWVTKSDALFSQMYDWQKSEASGDYILIASYADGLKAQYLRELKNQGEDIPGSDPGYNQVTVPLKDAILEHLTEAYGVERDSIPEPVTAASQFWTDYPFGCGWITWRAGYHFDDVISTMRRPSLKDEVYVVGSDYSWGLISSWIEGALETSENVINDYFL
notes: a signal peptide cleavage site between 18 and 19 amino acid residues was predicted by SignalIP; from tissue; host or cells: ink (ink gland secretion) of Aplysia californica
As usually defined, the Km is the substrate concentration at which the rate is half of its maximum. One may read the Vmax as the rate approached at saturating substrate. For the protein B1, in data set [1], the Km came out at 25 µM and the Vmax amounted to 1.56 µM/s. Further, in data set [2], the Km was found to be 31 µM and the maximum rate (Vmax) was found to be 1.92 µM/s.

The record behind these values is patent US7329517B2, “Escapin protein, a broadly antimicrobial compound from ink of the sea hare Aplysia californica, and uses thereof” (priority 2004, dated 2008).
